{"source": "paper doi:10.1101/2020.02.07.938506", "about": "(2020)", "target": "T1, MNV P domain (protruding domain of the capsid protein VP1 of murine norovirus) (murine norovirus (MNV), strain CW3, UniProt Q80J94 225-541)", "T1 chain": "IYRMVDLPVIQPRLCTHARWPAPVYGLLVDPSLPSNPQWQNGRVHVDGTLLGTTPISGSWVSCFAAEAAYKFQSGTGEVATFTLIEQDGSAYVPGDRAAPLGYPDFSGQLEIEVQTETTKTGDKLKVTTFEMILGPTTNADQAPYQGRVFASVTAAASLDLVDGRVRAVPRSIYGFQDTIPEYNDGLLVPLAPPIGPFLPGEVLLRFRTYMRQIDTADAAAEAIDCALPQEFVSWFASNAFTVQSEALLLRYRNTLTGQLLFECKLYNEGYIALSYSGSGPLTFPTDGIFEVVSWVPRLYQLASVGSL", "test": "ITC", "data": [{"binder": "Nanobody NB-5829 (VHH) VHH: QVQLQESGGGLVEAGGSLRLSCLGSGLTFSRYAMGWFRQAPGKEREFVASITRSGGSPNYADSVKGRFTISRDNAKNTVYLQMSSLKPEDTAVYYCAGRGSVYYDVWGQGTQVTVSS", "values": [{"measurement": "Kd", "value": 1.4, "unit": "nM"}]}]}
